Results as given in patent US20060058231A1 (Xencor, published 2006).

T1: BMPRIb Fc fusion (R&D Systems) (UniProt O00238 14-126)
T1 construct: Bought receptor/Fc fusion; also called ALK-6; not shown: Fc part of the bought fusion
T1 sequence (looked up): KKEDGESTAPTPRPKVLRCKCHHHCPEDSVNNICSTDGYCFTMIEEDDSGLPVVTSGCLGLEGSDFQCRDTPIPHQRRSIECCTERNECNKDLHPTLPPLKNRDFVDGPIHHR

T2: BMPRII Fc fusion (R&D Systems) (UniProt Q13873 27-151, limits assumed)
T2 construct: Bought receptor/Fc fusion; not shown: Fc part of the bought fusion
T2 sequence (looked up): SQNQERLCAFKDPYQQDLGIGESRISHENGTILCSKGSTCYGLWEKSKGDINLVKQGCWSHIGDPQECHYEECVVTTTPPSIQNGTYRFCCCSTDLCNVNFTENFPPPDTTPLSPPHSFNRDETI

T3: noggin Fc fusion (R&D Systems) (UniProt Q13253 28-232, limits assumed)
T3 construct: Bought noggin/Fc fusion; not shown: Fc part of the bought fusion
T3 sequence (looked up): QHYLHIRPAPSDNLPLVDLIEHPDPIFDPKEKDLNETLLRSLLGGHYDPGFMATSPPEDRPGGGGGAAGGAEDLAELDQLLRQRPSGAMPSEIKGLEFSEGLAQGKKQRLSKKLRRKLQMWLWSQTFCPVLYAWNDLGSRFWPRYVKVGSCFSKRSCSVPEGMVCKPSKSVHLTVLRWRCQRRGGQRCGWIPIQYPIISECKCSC

T4: BMPRII receptor-Fc fusion (UniProt Q13873 27-151, limits assumed)
T4 construct: BMP receptor-Fc fusion, detected with anti-human IgG-HRP
T4 sequence (looked up): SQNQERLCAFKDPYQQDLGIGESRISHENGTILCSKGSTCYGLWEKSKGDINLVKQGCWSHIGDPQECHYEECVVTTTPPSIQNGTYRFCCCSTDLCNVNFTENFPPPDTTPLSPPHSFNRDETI

T5: BMPRIb receptor-Fc fusion (UniProt O00238 14-126)
T5 construct: BMP receptor-Fc fusion, detected with anti-human IgG-HRP; also called ALK-6
T5 sequence (looked up): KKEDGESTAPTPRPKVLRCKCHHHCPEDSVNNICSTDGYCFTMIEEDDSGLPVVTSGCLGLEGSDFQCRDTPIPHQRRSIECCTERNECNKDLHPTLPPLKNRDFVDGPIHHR

B1: BMP-7 variant 504 (Y65N/S120D) (ligand)
chain: STGGKQRSQNRSKTPKNQEALRMASVAENSSSDQRQACKKHELYVSFRDLGWQDWIIAPEGYAANYCEGECAFPLNSYMNATNHAIVQTLVHFINPETVPKPCCAPTQLNAISVLYFDDDSNVILKKYRNMVVRACGCH
notes: Purified, unlabeled variant; also called v504
B2: wild type human BMP-7 (R&D Systems) (ligand)
chain: STGGKQRSQNRSKTPKNQEALRMASVAENSSSDQRQACKKHELYVSFRDLGWQDWIIAPEGYAAYYCEGECAFPLNSYMNATNHAIVQTLVHFINPETVPKPCCAPTQLNAISVLYFDDSSNVILKKYRNMVVRACGCH
notes: Bought recombinant protein; It describes BMPs as dimers; also called wt; recombinant human BMP-7
B3: recombinant human BMP-7 (R&D Systems) (ligand)
chain: STGGKQRSQNRSKTPKNQEALRMASVAENSSSDQRQACKKHELYVSFRDLGWQDWIIAPEGYAAYYCEGECAFPLNSYMNATNHAIVQTLVHFINPETVPKPCCAPTQLNAISVLYFDDSSNVILKKYRNMVVRACGCH
notes: Bought protein; also called wild type human BMP-7 (R&D Systems); wt
B4: BMP-7 variant K39T (ligand)
chain: STGGKQRSQNRSKTPKNQEALRMASVAENSSSDQRQACTKHELYVSFRDLGWQDWIIAPEGYAAYYCEGECAFPLNSYMNATNHAIVQTLVHFINPETVPKPCCAPTQLNAISVLYFDDSSNVILKKYRNMVVRACGCH
B5: BMP-7 variant S77T (ligand)
chain: STGGKQRSQNRSKTPKNQEALRMASVAENSSSDQRQACKKHELYVSFRDLGWQDWIIAPEGYAAYYCEGECAFPLNTYMNATNHAIVQTLVHFINPETVPKPCCAPTQLNAISVLYFDDSSNVILKKYRNMVVRACGCH
B6: BMP-7 variant R134P (ligand)
chain: STGGKQRSQNRSKTPKNQEALRMASVAENSSSDQRQACKKHELYVSFRDLGWQDWIIAPEGYAAYYCEGECAFPLNSYMNATNHAIVQTLVHFINPETVPKPCCAPTQLNAISVLYFDDSSNVILKKYRNMVVPACGCH
B7: BMP-7 variant 526 (K39S/S120D/R134E) (ligand)
chain: STGGKQRSQNRSKTPKNQEALRMASVAENSSSDQRQACSKHELYVSFRDLGWQDWIIAPEGYAAYYCEGECAFPLNSYMNATNHAIVQTLVHFINPETVPKPCCAPTQLNAISVLYFDDDSNVILKKYRNMVVEACGCH
notes: Purified variant; also called v526
B8: BMP-7 variant K39D (ligand)
chain: STGGKQRSQNRSKTPKNQEALRMASVAENSSSDQRQACDKHELYVSFRDLGWQDWIIAPEGYAAYYCEGECAFPLNSYMNATNHAIVQTLVHFINPETVPKPCCAPTQLNAISVLYFDDSSNVILKKYRNMVVRACGCH
B9: BMP-7 variant E60S (ligand)
chain: STGGKQRSQNRSKTPKNQEALRMASVAENSSSDQRQACKKHELYVSFRDLGWQDWIIAPSGYAAYYCEGECAFPLNSYMNATNHAIVQTLVHFINPETVPKPCCAPTQLNAISVLYFDDSSNVILKKYRNMVVRACGCH
B10: BMP-7 variant R134S (ligand)
chain: STGGKQRSQNRSKTPKNQEALRMASVAENSSSDQRQACKKHELYVSFRDLGWQDWIIAPEGYAAYYCEGECAFPLNSYMNATNHAIVQTLVHFINPETVPKPCCAPTQLNAISVLYFDDSSNVILKKYRNMVVSACGCH
B11: BMP-7 variant R134L (ligand)
chain: STGGKQRSQNRSKTPKNQEALRMASVAENSSSDQRQACKKHELYVSFRDLGWQDWIIAPEGYAAYYCEGECAFPLNSYMNATNHAIVQTLVHFINPETVPKPCCAPTQLNAISVLYFDDSSNVILKKYRNMVVLACGCH
B12: BMP-7 variant K126G (ligand)
chain: STGGKQRSQNRSKTPKNQEALRMASVAENSSSDQRQACKKHELYVSFRDLGWQDWIIAPEGYAAYYCEGECAFPLNSYMNATNHAIVQTLVHFINPETVPKPCCAPTQLNAISVLYFDDSSNVILGKYRNMVVRACGCH
B13: BMP-7 variant 565 (Y65N/F93T/R129D) (ligand)
chain: STGGKQRSQNRSKTPKNQEALRMASVAENSSSDQRQACKKHELYVSFRDLGWQDWIIAPEGYAANYCEGECAFPLNSYMNATNHAIVQTLVHTINPETVPKPCCAPTQLNAISVLYFDDSSNVILKKYDNMVVRACGCH
notes: Purified variant; also called v565
B14: BMP-7 variant S77P (ligand)
chain: STGGKQRSQNRSKTPKNQEALRMASVAENSSSDQRQACKKHELYVSFRDLGWQDWIIAPEGYAAYYCEGECAFPLNPYMNATNHAIVQTLVHFINPETVPKPCCAPTQLNAISVLYFDDSSNVILKKYRNMVVRACGCH
B15: BMP-7 variant Q53A (ligand)
chain: STGGKQRSQNRSKTPKNQEALRMASVAENSSSDQRQACKKHELYVSFRDLGWADWIIAPEGYAAYYCEGECAFPLNSYMNATNHAIVQTLVHFINPETVPKPCCAPTQLNAISVLYFDDSSNVILKKYRNMVVRACGCH

Tests used:
[1] = target: T6, anti-BMP-7 antibodies of the commercial ELISA (R&D Systems ELISA Duoset Cat#DY354); test: sandwich ELISA (R&D Systems BMP7 ELISA Cat#DY354), BMP-7 protein titrated, % ELISA signal; the EC50 column carries no unit, the concentration axis is in ug/mL
T6 construct: also called antibody; ELISA antibody

[2] = target: T1, BMPRIb Fc fusion (R&D Systems); test: AlphaScreen competition against biotinylated Y65N/S120D BMP-7
Protocol: (§1) The Y65N/S120D variant of BMP-7 was also biotinylated for use in AlphaScreen assays using NHS-biotin. Bioactivity of the biotinylated protein was confirmed. AlphaScreen assays were performed to determine the binding affinity of selected BMP-7 variants for Fc fusions of the receptors BMPRIa, BMPRIb, ActRIIa, and BMPRII and the inhibitor noggin (R&D Systems). AlphaScreen assays were also performed to determine the affinity of selected variants for an anti-BMP-7 monoclonal antibody (R&D Systems mAb 3541). In all cases, 12-point binding curves were obtained in triplicate. Each data point corresponds to the luminescence produced from a solution comprising 10 uL of serially diluted BMP-7 variant, 10 uL receptor, inhibitor, or antibody, 10 uL biotinylated BMP-7, 10 uL AlphaScreen™ acceptor beads, and 10 uL AlphaScreen™ donor beads. Prism was used to calculate EC50 values for selected experiments.

[3] = target: T7, ActRIIa Fc fusion (R&D Systems) (UniProt P27037 20-134, limits assumed); test: as above
T7 construct: Bought receptor/Fc fusion; not shown: Fc part of the bought fusion
Protocol: as §1

[4] = target: T2, BMPRII Fc fusion (R&D Systems); test: as above
Protocol: as §1

[5] = target: T3, noggin Fc fusion (R&D Systems); test: as above
Protocol: as §1

[6] = target: T8, ActRIIa receptor-Fc fusion (UniProt P27037 20-134, limits assumed); test: ELISA-like, fixed volume of conditioned media, receptor-Fc
T8 construct: BMP receptor-Fc fusion, detected with anti-human IgG-HRP

[7] = target: T4, BMPRII receptor-Fc fusion; test: as above
[8] = target: T9, BMPRIa receptor-Fc fusion (UniProt P36894 24-152, limits assumed); test: as above
T9 construct: BMP receptor-Fc fusion; also called ALK-3

[9] = target: T5, BMPRIb receptor-Fc fusion; test: as above

T8 sequence (P27037 20-134 limits assumed): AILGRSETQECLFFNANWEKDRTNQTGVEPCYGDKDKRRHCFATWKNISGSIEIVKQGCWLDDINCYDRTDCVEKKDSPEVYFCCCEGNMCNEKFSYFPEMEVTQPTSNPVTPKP
T9 sequence (P36894 24-152 limits assumed): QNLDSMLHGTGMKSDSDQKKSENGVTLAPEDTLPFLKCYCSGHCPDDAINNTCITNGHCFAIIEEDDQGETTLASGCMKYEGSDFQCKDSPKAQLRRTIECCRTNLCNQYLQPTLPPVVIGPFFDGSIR
T7 sequence (P27037 20-134 limits assumed): as the sequence (P27037 20-134 limits assumed) above

Row | Binder | EC50 [1] | EC50 [2] | EC50 [3] | EC50 [4] | EC50 [5] | ActRIIa binding relative to wild type [6] | BMPRII binding relative to wild type [7] | BMPRIa binding relative to wild type [8] | BMPRIb binding relative to wild type [9]
1 | B1 | 0.00821 µg/mL |  |  |  |  |  |  |  | 
2 | B2 |  | 0.0499 µg/mL | 0.107 µg/mL | 0.23 µg/mL | 2.85 µg/mL |  |  |  | 
3 | B3 | 0.00112 µg/mL |  |  |  |  |  |  |  | 
4 | B4 |  |  |  |  |  | 0.98 relative to wt = 1.0 | 0.75 relative to wt = 1.0 | 0.74 relative to wt = 1.0 | 0.86 relative to wt = 1.0
5 | B5 |  |  |  |  |  | 0.99 relative to wt = 1.0 | 0.93 relative to wt = 1.0 | 0.94 relative to wt = 1.0 | 0.9 relative to wt = 1.0
6 | B6 |  |  |  |  |  | 0.89 relative to wt = 1.0 | 0.5 relative to wt = 1.0 | 0.54 relative to wt = 1.0 | 0.6 relative to wt = 1.0
7 | B7 | 0.00119 µg/mL |  |  |  |  |  |  |  | 
8 | B8 |  |  |  |  |  | 0.88 relative to wt = 1.0 | 0.72 relative to wt = 1.0 | 0.67 relative to wt = 1.0 | 0.82 relative to wt = 1.0
9 | B9 |  |  |  |  |  | 1.02 relative to wt = 1.0 | 0.88 relative to wt = 1.0 | 0.74 relative to wt = 1.0 | 0.87 relative to wt = 1.0
10 | B10 |  |  |  |  |  | 1.17 relative to wt = 1.0 | 1.07 relative to wt = 1.0 | 1.1 relative to wt = 1.0 | 1.15 relative to wt = 1.0
11 | B11 |  |  |  |  |  | 0.99 relative to wt = 1.0 | 1 relative to wt = 1.0 | 1.03 relative to wt = 1.0 | 1.02 relative to wt = 1.0
12 | B12 |  |  |  |  |  | 0.53 relative to wt = 1.0 | 0.12 relative to wt = 1.0 | 0.3 relative to wt = 1.0 | 0.35 relative to wt = 1.0
13 | B13 | 0.00688 µg/mL |  |  |  |  |  |  |  | 
14 | B14 |  |  |  |  |  | 0.92 relative to wt = 1.0 | 0.85 relative to wt = 1.0 | 0.68 relative to wt = 1.0 | 0.95 relative to wt = 1.0
15 | B15 |  |  |  |  |  | 0.84 relative to wt = 1.0 | 0.26 relative to wt = 1.0 | 0.54 relative to wt = 1.0 | 0.65 relative to wt = 1.0
